Laboratory results published in the supplement of paper PMC12455559.

Test: purified protein yield per well (BCA); higher = higher soluble expression
Method in brief: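 Candidate enzymes were produced in E. coli C41(DE3) grown in 2 mL autoinduction cultures containing 100 µg/mL kanamycin, first at 37 °C for 2 h and then at 18 °C for 40 h. After cell lysis, protein was captured on Ni-charged magnetic beads and freed by SUMO protease cleavage on an OT-2 robot. Purified protein yield per well was read with the Pierce Rapid Gold BCA kit. Values under 25 ug (0.1 mg/mL) fall below the detection threshold.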

| Sequence | purified protein yield per well |
| --- | --- |
| RPSAENPYERGPAPTVASIEAARGPFGTAETRVSATAVRGFGGGTIYYPTDTSQGTFGAVAVAPGFTASQSSMSWLGPRLASQGFVIFTIDTLGRYDQPAARGDQLLAALDYLTQSSSVRGRIDGSRLAVMGHSMGGGGSLEAAKDRPALQAAIPLTPWNATKNWSSVRTPTLIIGAERDSVASVAAHSEPFYASLPSTLDRAYLELAGASHFAPNVANVTIAKYSISWLKRFVDNDTRYEQFLCPLPSGSAISEYRGNCPHQG [TEP152] | < 25 µg |
| AETSYENGPDPTSSSIEAVKGPFEVSTQTVSSYSVRDFGGGTIYYPASSVEGGYGAVAISPGYTARKSSIAWLGSRLASQGFVVFTIDTKTTSDRPASRGDQLLASLDYLTENSRIKDQVDPNRLAVMGHSMGGGGVFEAAKDRPELQGAIAMTPWNTNKTFSEVSTPTLIFGAQDDTVAPVSRHSIPLYSGLPSTTPRTYLELRGASHFAPNRSNTTIAAQSIAWLKAFLDEDRRYDQFLCPGPTTGIDLSDVRTSCPF [DP036] | < 25 µg |
| HAPAPQPVVVHHHAPFAVRTTVVPKTAVKAFGGGVIYTPQDTGKPVLGAVVITPGFTNTNADEKELGQLVASQGFVAFVIDTLDTGDLPAQRATEILAATDYLTGQSAVRSEVSAKDVGLIGYSFGGGGTMQAAQSRPSIKAAIGLMPFDVPPASDPHALYATYPKLTTPTLVITGQKDEVARPKDFGKPAYDSIPAGTPKQYLELKGLDHSAGEHAPVAAIRNAVTAFLKRYLDGNSAYAKFICPAPKVGGPISVSLSSCPKG [ESM155] | < 25 µg |
| SPVLALVAGPALANPYQRGPDPTDASITAETGPFKTASVVVPSNTDPGFAGGTIYYPTDTSQGTFAPIVVTPGFVSPQWAISWYGPRLASQGFVVMTIDTLGLFDVVDQRGKEMLAALDYLTNRSAVKDRIDPTRPGLMGHSMGGGGVIRAAAERPGIKAVVPLAPWDPNSSYAWNVKADTLVVGGESDMIAPVAANAEPIYKDLRSAPEKAYLELSGADHVFAFNLPNTTIAKYAIAWMKRFLDDDVRYDRFLCPAPAPGGAIKQYQDTCPNG [TEP158] | < 25 µg |
| QVANPYAKGPNPTEASVTATTGPFAVTTSNISSLVSGFGGGRLYYPTATNQGTYGAIALSPGFTAGWSSIDWLGPRLASFGFVVIGIETNSRYDYPPSRGEQLLAALDWAVEDSPAASRIDPTRLAVGGHSMGGGGSLEAASDRPSLKAVLPLAPWNSDKTWNEVQVPTLIIGGESDTVAPVGSHSTPFYNSLSGEKAFLELNNASHFFPQSPNNLVAKLAISWAKRWVDNDTRYSQFLCPGPASGGLSEVQAYRQTCPF [TEP096] | < 25 µg |
| APVAVAPAAVPVHGVDPTDANLRQPVGDLAFSQVTIADSQTPGFGAATIYYPDDTTHGTYGGVAVVPGYTSPQSAVAWLGPRLASRGFVVITIATNSIYDQPTTRGRELLSALDYLTTSSPAAVRQRLDPQRLAVMGHSMGGGGALYAVSQRTTIKAAVPLAPYNQDKTWQTVKTPTMLMAGSADNVAGIGTFSRPFYRSMTGARERALVNVQGADHGTFVRENATIGKYATAWLKRFVDEDTRYDQFLCPAPTGDGLTEYTASCPNA [DP012] | < 25 µg |
| QACDSLLLESITNPGPFIVNTIDESLGIRNGPGYNGGTIFYPDHIGNFSSIVLVPGFMNSEFTIQNWGAFFASHGIITMTIGTNALTDTHIQRRDALLDAIVSLKAENERLGSPLYGSIDTSSIAVGGFSKGGGGAMLVPAIDPNIKAIISLYPWLENPTSSDLNHSVPVIIISGELDLIAPPFIHADIHYNLLPNTTMKLKYEVALGSHDIISGPNAGNGEVGVRVISWLQNFLLDDSCYCPILTLIPNTSSSYTTNILCNNTSINISSFNTGSDKKLLKITDIFGRETKEILNKYLLFIYDDGTVEKNIVLE [TEP022] | < 25 µg |
| AGNPHQRGPDPTPQSIVAEKGPFEVATAPAPAGNGFGGGTIYYPTDTSQGTFAGIAISPGFFGPQFSIDWYGPRLASQGFVVIAITTNALWDFPSQRADQLLAALKYLKQDSPAKDRLDGGRLGVMGHSMGGGGTMEAVLKDHSLKAAIPLTGWGITADYSGVQTPTMIIGAQFDVVAPDESYSIPFYKSLRPDLDKQFLQLAGGTHFSPNLPNTTIAKYSISWLKRFLDDDTRYQQFLCPVQPDPELSAHEATCHS [DP001] | < 25 µg |
| QAAANPYERGPAPSVSSIEAARGSYAVSQTSVSSLGVTGFGGGTVYYPTSTADGTFGAVVISPGFTATQSSISWLGPRLASQGFVVFTIDTNSTLDQPDSRGRQLLAALDYLTERSSVRTRIDATRLGVMGHSMGGGGTLEAAKSRPSLQAAIPLTGWNTDKSWPELRTPTLVIGADGDTVAPVATHSEPFYTSLPSSLDKAYLELNGATHFTPNSSNTTIAKYSISWLKRFIDDDTRYEQFLCPLPRPSVTIEEYRGNCPHS [TEP116] | < 25 µg |
| MRSDMTPEPEGTVAKAGWARSQPRPATRAVMAVAAVLALLAGLLAIGQASARSAPSAASPATTQRGPDPTVGMIEATRGPFATAQVAMPTGHGFGGGMIYYPTDTSQGTWGVLAIVPGYSALFADEEAWMGPWLSSFGFVVVGVETNTRTDSDSQRAADLLAALDYLTTQSPVRTQVDPARMAVLGHSAGGAGAIEAAEQRPSLRALIGLAPGFPGQGLSMAADTVPALIIGGQNDGTVTPSYLSSLYGTLPASTQSAFAQIAGADHVYYTHPNNVEMKLIIPWLKVFVDSDTRYTQFLCPSLPDPSTISAYQPKCPYIPPGGSSSPSSSSSSSSAPPPNSAPLHAVGAAKCLDVPNSSTTAGTQLQIYTCSNGANQLITHTGSNQLTVYSSTMCLDANNKGTTNGTKVIIWPCNGQSNQQWNLNPNGTITSAASGLCLDVTGASTANGALVQLWTCNGGSNQQWHLG [TEP169] | < 25 µg |
| VENGPVPTLADLKKDGPYAVTSQKVAGSGFGSGTIYSPNTAGKYALVAVCPGFVSAESSITDISRRLATHGFVVITIGTKTLLDFPSSRATQLLAALKTATTTTTGPVVGKIDTARQVVSGWSMGGGGTLEAAGITPGLKAAVAYAPWHSTTTKIKTSTVPSIIFGATGDVVAPVASHSQKFYDVLPTSTKKQLAVLQGSNHFFPNSAIEPVSYSNISWVKRFADGDTRYSQFLSVADPAWSKVQSNGPF [ESM166] | < 25 µg |
| DEIGSAPTAATITGNGSFATASTSVSSPSGFRGGQVYYPSTAGTYPVIAVVPGYLSYWSSISWLGPRLASWGFVVVGIETNSIYDQPASRGSQLRAALTWAVNTSPTTVRSRVDANRQGVAGWSMGGGGSLEALKADTSGRIKAAVPMAPWNSDQSWPEVTESVAIVGGQSDSVAPVSSHSIPFYNSLAGPKSYVELAGASHFFPNSDNPSLSRMIVSWFKRWINNDTRFTTFTCGFTGSAISSFRTNAC [ESM178] | 27.5 µg |
| CDSILFQSIASPGPYNVLSIDESDGIRNGQDYNGATIFYPEGNLYNLPSIVFVPGYSNTQFTIQNWGLFLASYGIVTMTIGTNTLIDSHIQRKDALLDALITIKQENVRSSSPLYNSLDTLKLALGGFSKGGGGAQLAASIGQNIKAVIALYPWLENISAVDLNHDVPVLIVSGNLDIIAPPSLHADVHYMYTPETTKKLKYEIAFATHDPLIGPNAGFGEVGKKTLSWLQTFLLGDSCFCPYLLDTPSNASIYMSNLNCTEISTNTYNLESNQEKKILKIIDIFGREVRPKKNMILFYIYNDQSVKKIIIK [TEP139] | < 25 µg |
| STPAHHAAARTAAHHHAPFAVRATVVPKTAVKAFGGGVIYTPQDTGKAVLGAVVITPGFTDTSADEKEMAELVASQGFVAFAIDTLDTGDLPDQRATEILAAADYLTGQSAVRSEVSAKDVGLIGYSFGGGGTMQAAQARPSIKAAIGLMPYDFPPADQPDAQYPAYPKLTTPTLVITGQKDDLAVPAEFGKPAYDSIPAGTPKQYLELKGLGHAAGEHVPVATIRTAVTAFLKRYLDGNSAYAKYICPAPKVGGPISASTSSCPKG [TEP196] | < 25 µg |
| QTSPDCSAITISSSTNTGVNLVSTYLESDGIRNGTDYYGSTIYYPQNTTSILASIIIVPGYLNFESSMQNWGPFLASHGIVCMTIGTNNIFDLVNDRKEALQDALISLKAENTRVNSPLFNKLNTSRVALAGWSMGGGGAQLAAVEDSTIKAIIALCPWIDPMQISVNSLIHDVPVLFFSGQFDAVAPSSTHANIHYNYTPSTTDKLIYEISSGGHTVANVPSGGQGEVGRMALSWLKKYLIEDYCYCPLLLDTPLTASIYQTNVTCSTYGCTDSIALNYDPLATTDDGTCIYCVYGCTDSTSVNYAPLAICDDGTCIASVYGCTNATACNYYAGANINDGSCEWTSCNPTSCGASAITGLGVTNVIHDRVTLTFDNMNTYDTSGAQICRVDQLRIKYREVGTSSWSQKNMAAPTGYDPTTGICNSTQNTDKLVLGLSGSTTYEWEMRVWYCVTGATAWVVGPDFTTADNCPNIGSFTAYGSNPIRATFDWDDSNGSYEFVRIKMRVDSISNPQGTDWFQVGGFGVTYGTFTKDKNGLVAGETYRAQARTWCDPNGGAYNSLSWTALATW [TEP033] | < 25 µg |
| HAPAHAPAHQPVVAHHHAPFAVRTTVVPKTAVKAFGGGVIYTPQDTGKAVLGAVVITPGFTDTNADEKELAELVASQGFVAFAIDTLDTGDLPDQRATEILAAADYLTGQSAVRSEVSAKDVGLIGYSFGGGGTMQAAQARPSIKAAIGLMPFDFPPASDPNAQYPAYPKLTTPTLVITGQKDDVADPADFGKPAYDSIPGGTPKQYLELKGLDHYAGEHTPVAAIRNAVTAFLKRYLDGNSAYAKLICPAPKVGGPITASYSSCPKG [ESM190] | < 25 µg |
| DEIGQAPTAANITGNGSFAVTSAAVTGASGFGGGTVYYPTTAGTYPVVAIAPGFTQAWSAIQWLGPRLSSWGFVVVGINTNSSLDFPASRGTQLLAALNWAVASAPAAVTSRADGTRRGVAGYSMGGGGTLEALSQDTTGAVKAGVPMAPWHTDTTWQQVTEPVFILGGQNDSTAPVASHAKPMYNSLGGPKTYVELAGAPHSFPRTDNATTSRALVSWFKRWLNGDARFTPFTCGFTGTAISAYQTTAC [ESM099] | < 25 µg |
| SNPAPEPSPTPSPSPSQPSNPFQRGPNPTVASVESAGPFAVRTSRVSSAVSGFGGGTIYYPSGTTGTMAAIVVIPGYVSSQSSIEWWGPRLASNGFVVMTIDTNATTDQPPARARQINAALDYLIAQNRASGSPVNGMIDTSRLGVVGWSMGGGGTLRVASEGRIKAAIPLAPWDTTTFRNVKAPTLIFACESDTIAPVRNHASPFYNQVPTSIPKAFVQLNRGNHYCANGGNAFNADLSRLGVSWMKRFLDNDRRFSQFLCGPN [ESM016] | < 25 µg |
| AENPYERGPDPTESSIEASRGSFAVSQTSVSSLAVIGFGGGTIYYPTSTAQGTFGAVAISPGFTATQSSIAWIGPRLASQGFVVFTIDTNTIYDQPDSRGDQLLAALDYLTQRSDVRSRIDTSRLAVAGHSMGGGGSLEAAQDRPSLQAAVPLAPWNTQKSWSSLRVPTFIIGGESDTVAPVASHSIPFYTSIPASAEKAYMELDNASHFFPNTANTTMAKYTISWLKRFVDNDTRYEQFLCPAPDDRTISDYRDTCPHA [TEP129] | < 25 µg |
| QTSDPTSTSLNATSGPLSISSTSVSSFSARGFGGGTIYYPSASGRYGVVAISPGYTARQSSIAWLGRRLASHGFVVITIDTNSTLDQPPSRATQLMAALDHVVNRASSTVRSRVDAARLAVAGHSMGGGGSLIAARDNPSLRAVYPMTPWSVSKDFSAVRVPTMIIGADNDSVASVVTHARPFYSSLAASLPKAYGELNNASHFAPNTTNTPIGRYAVTWMKRFVDGDTRYSPFLCGTPHNQYATSQVFARYQQNCPY [ESM134] | < 25 µg |
